# Measured values as given in article PMC7952403 (Nature Communications, 2021).
# B1: STE72-8E1 scFv-Fc (scFv, V domains shown)
# VH: QVQLQEWGPGLVQPSETLSLTCTVSGGSISSGGYYWSWIRQHPGKGLEWIGRIYPSGSTNYNPSLKSRVTMSVDTSENQFSLKLSSVTAADTAVYYCARGGPKRSGSPFDVWGQGTMVTVSS
# VL: EVVMTQSPSTLSASVGDRVTITCRASQTFGPWLAWYQQKPGQAPKLLIYMASELESGVPSRFSGSGSGTEFTLSISSLQPDDFATYYCQQYNTFSPWTFGQGTKVDIK
# notes: also called scFv-hFc; source: Expi293F, transient transfection, purified (Protein A)
# B2: STE72-1G5 scFv-Fc (scFv, V domains shown)
# VH: QVQLVQSGAEVKKPGASVKVSCKASGGTFSSYAISWVRQAPGQGLEWMGGIIPIFGTANYAQKFQGRVTITADESTSTAYMELSSLRSEDTAVYYCAVGGVQLWLTYWGQGTLVTVSS
# VL: ETTLTQSPGALSLSPGERATLSCRVSQSLSSNSLAWYQQKPGQAPRLLIYDTSIRATGIPDRFSGSGSGTDFTLTISRLEPEDFAVYYCHKYGSWPRTFGQGTKVEV
# notes: as for B1
# B3: STE72-4C10 scFv-Fc (scFv, V domains shown)
# VH: EVQLQESGGGVVQPGRSLRLSCAASGFTFSSYAMHWVRQAPGKGLEWVAVISYDGSNKYYADSVKGRFTISRDNSKNTLYLQMNSLRAEDTAVYYCAREYSSSWYGLGAFDIWGQGTMVTVSS
# VL: DIRLTQSPSSLSASVGDRVTITCRASQNIHYYLNWYQQKPGKAPSLLVYGASSLQSGVPSRFSGSGSGTEYTLTISSLQPEDFATYFCQQSFKSPATFGQGTKVDIK
# notes: as for B1
# B4: STE73-2E9 scFv-Fc (scFv, V domains shown)
# VH: QVQLVQSGAEVKKPGASVKVSCKASGYTFTSYGISWVRQAPGQGLEWMGWISAYNGNTNYAQKLQGRVTMTTDTSTSTAYMELRSLRSDDTAVYYCARGKFDYWGQGTLVTVSS
# VL: QSVLTQPPSVSEAPSQRVTISCSGSSSNIGNNAVNWYQQLPGKAPKLLIYYDDVLPSGVSDRFSGSKSGTSASLAISGLQSGDEADYYCAAWDDSLSGVVFGGGTKLTVL
# notes: as for B1
# B5: STE73-6C1 scFv-Fc (scFv, V domains shown)
# VH: QVQLVQSGGGVVQPGRSLRLSCAASGFTFSSYAMHWVRQAPGKGLEWVAVISYDGSNKYYADSVKGRFTISRDNSKNTLYLQMNSLRAEDTAVYYCARSYVGGMDVWGQGTTVTVSS
# VL: QLVLTQSPSVSGAPGQSVTISCTGTDSNIGAGYNVHWYQQLPGAAPKLIISYTDNRPSGVPDRFSGSKSGTSASLAITGLQAEDEADYYCQSSDRTLVGSLFGTGTKVTVL
# notes: as for B1
# B6: STE73-9G3 scFv-Fc (scFv, V domains shown)
# VH: QVQLQESGGGLVQPGGSLRLSCAASGFTFSSYAMSWVRQAPGKGLEWVSAISGSGGSTYYADSVKGRFTISRDNSKNTLYLQMNSLRAEDTAVYYCARDLVLGSGSSNDWGRGTLVTVSS
# VL: QPVLTQPPSVSGAPGQSVTISCTGTDSNIGAGYNVHWYQQLPGAAPKLIISYTDNRPSGVPDRFSGSKSGTSASLAITGLQAEDEADYYCQSSDRTLVGSLFGTGTKVTVL
# notes: as for B1
# B7: STE73-6C1 IgG (antibody, V domains shown)
# VH: QVQLVQSGGGVVQPGRSLRLSCAASGFTFSSYAMHWVRQAPGKGLEWVAVISYDGSNKYYADSVKGRFTISRDNSKNTLYLQMNSLRAEDTAVYYCARSYVGGMDVWGQGTTVTVSS
# VL: QLVLTQSPSVSGAPGQSVTISCTGTDSNIGAGYNVHWYQQLPGAAPKLIISYTDNRPSGVPDRFSGSKSGTSASLAITGLQAEDEADYYCQSSDRTLVGSLFGTGTKVTVL
# notes: source: Expi293F, transfected, purified (Protein A); copies: 2 + 2
# B8: STE73-9G3 IgG (antibody, V domains shown)
# VH: QVQLQESGGGLVQPGGSLRLSCAASGFTFSSYAMSWVRQAPGKGLEWVSAISGSGGSTYYADSVKGRFTISRDNSKNTLYLQMNSLRAEDTAVYYCARDLVLGSGSSNDWGRGTLVTVSS
# VL: QPVLTQPPSVSGAPGQSVTISCTGTDSNIGAGYNVHWYQQLPGAAPKLIISYTDNRPSGVPDRFSGSKSGTSASLAITGLQAEDEADYYCQSSDRTLVGSLFGTGTKVTVL
# notes: as for B7
# B9: STE72-1B6 scFv-Fc (scFv, V domains shown)
# VH: QVKLVQSGGGLVQPGGSLRLSCAASGFTFSSYAMSWVRQAPGKGLEWVSGISGSGGSTYYADSVKGRFTISRDNSKNTLYLQVNSLRAEDTAVYYCAKAPYGDFRGLWYFDYWGQGTLVTVSS
# VL: DIVMTQSPFSVSASVGDRVTISCRASQDIRSWLAWYQQKPGKAPQLLIYDASSLQSGVPSRFSGSGSGTDFTLTISSLQPEDFATYYCQQADSVPLTFGGGTKVEIQ
# notes: as for B1
# B10: STE72-1B6 IgG (antibody, V domains shown)
# VH: QVKLVQSGGGLVQPGGSLRLSCAASGFTFSSYAMSWVRQAPGKGLEWVSGISGSGGSTYYADSVKGRFTISRDNSKNTLYLQVNSLRAEDTAVYYCAKAPYGDFRGLWYFDYWGQGTLVTVSS
# VL: DIVMTQSPFSVSASVGDRVTISCRASQDIRSWLAWYQQKPGKAPQLLIYDASSLQSGVPSRFSGSGSGTDFTLTISSLQPEDFATYYCQQADSVPLTFGGGTKVEIQ
# notes: as for B7
# B11: STE73-2C2 scFv-Fc (scFv, V domains shown)
# VH: QVQLVESGGGLVQPGGSLRLSCAASGITVSSNYMSWVRQAPGKGLEWVSVIYSGGSTFYADSVKGRFTISRDNSKNTLYLQMNSLRAEDTGVYYCARGHDNLDYWGQGTLVTVSS
# VL: LPVLTQPHSVSESPGKTVIISCTGSSDSIASNYVQWYQQRPGSAPTTVIYEDNKRPSGVPDRFSGSTDSSSNSASLTISGLKTEDEAEYYCQSYDSNNHWVFGGGTKLTVL
# notes: as for B1
# B12: STE70-1E12 scFv-Fc (scFv, V domains shown)
# VH: QMQLVQSGAEVKKPGASVKVSCKASGYTFTGYYMHWVRQAPGQGLEWMGRINPNSGGTNYAQKFQGRVTMTRDTSTSTAYMELSRLRSDDTAVYYCVRDGYNFNNWFDPWGQGTLVTVSS
# VL: NFMLTQPHSVSGSPGETITISCTGSGGSIASNYVQWYRQRPGSAPTIVIYEDTQRPSGVPDRFSGSIDSSSNSASLTISGLKTEDEADYYCQSSESTNHVMFGGGSKLTVL
# notes: as for B1
# B13: STE70-1E12 IgG (antibody, V domains shown)
# VH: QMQLVQSGAEVKKPGASVKVSCKASGYTFTGYYMHWVRQAPGQGLEWMGRINPNSGGTNYAQKFQGRVTMTRDTSTSTAYMELSRLRSDDTAVYYCVRDGYNFNNWFDPWGQGTLVTVSS
# VL: NFMLTQPHSVSGSPGETITISCTGSGGSIASNYVQWYRQRPGSAPTIVIYEDTQRPSGVPDRFSGSIDSSSNSASLTISGLKTEDEADYYCQSSESTNHVMFGGGSKLTVL
# notes: as for B7
# B14: STE72-4E12 scFv-Fc (scFv, V domains shown)
# VH: QVQLVQSGAEVKKPGASVKVSCKASGYTFTSYYMHWVRQAPGQGLEWMGIINPSGGSTSYAQKFQGRVTMTRDTSTSTVYMELSSLRSEDTAVYYCARDLSGGLDYWGQGTLVTVSS
# VL: ETTLTQSPATLSVSPGERVTLACRAGQTISSKLAWYRQKPGQAPSLLIYDASTRATGVPARFSGSGSGTEFTLTISSLQSEDFAVYYCQQYSDWPPTFGQGTKVEIK
# notes: as for B1
# B15: STE72-4E12 IgG (antibody, V domains shown)
# VH: QVQLVQSGAEVKKPGASVKVSCKASGYTFTSYYMHWVRQAPGQGLEWMGIINPSGGSTSYAQKFQGRVTMTRDTSTSTVYMELSSLRSEDTAVYYCARDLSGGLDYWGQGTLVTVSS
# VL: ETTLTQSPATLSVSPGERVTLACRAGQTISSKLAWYRQKPGQAPSLLIYDASTRATGVPARFSGSGSGTEFTLTISSLQSEDFAVYYCQQYSDWPPTFGQGTKVEIK
# notes: as for B7
# B16: STE73-2G8 scFv-Fc (scFv, V domains shown)
# VH: QVQLVQSGGGLVKPGGSLRLSCAASGITVSSNYMSWVRQAPGKGLEWVSILYSGGTTFYTDSVKGRFTISRDNSKNTLHLQMNSLRAEDTAVYYCARWSGTYYDYWGQGTLVTVSS
# VL: SSELTQDPAVSVALGQTVRITCQGDSLRSYYASWYQQKPGQAPVLVIYGKNNRPSGIPDRFSGSSSGNTASLTITGAQAEDEADYYCNSRDSTNDPVLFGAGTKLTVL
# notes: as for B1
# B17: STE73-2G8 IgG (antibody, V domains shown)
# VH: QVQLVQSGGGLVKPGGSLRLSCAASGITVSSNYMSWVRQAPGKGLEWVSILYSGGTTFYTDSVKGRFTISRDNSKNTLHLQMNSLRAEDTAVYYCARWSGTYYDYWGQGTLVTVSS
# VL: SSELTQDPAVSVALGQTVRITCQGDSLRSYYASWYQQKPGQAPVLVIYGKNNRPSGIPDRFSGSSSGNTASLTITGAQAEDEADYYCNSRDSTNDPVLFGAGTKLTVL
# notes: as for B7
# B18: STE72-2G4 scFv-Fc (scFv, V domains shown)
# VH: QVQLVQSGAEVKKPGASVKVSCKASGYTFTSYGISWVRQAPGQGLEWMGWISAYNGNTNYAQKLQGRVTMTTDTSTSTAYMELRSLRSDDTAVYYCARFFYDSSGYSTDYWGQGTLVTVSS
# VL: ETTLTQSPAFMSVTPGDRAILSCRASQSVDSHLAWYHQKPGQPPRLLIYGASTRATGIPARFSGSRSGTEFTLTISGLQSEDLGVYYCQQYASWPPGYNFGQGTKLEIK
# notes: as for B1
# B19: STE73-6C8 scFv-Fc (scFv, V domains shown)
# VH: QVQLQQSGAEVKKPGSSVKVSCKASGGTFSSYAISWVRQAPGQGLEWMGRIIPILGIANYAQKFQGRVTITADKSTSTAYMELSSLRSEDTAVYYCARSIAALNWFDPWGQGTLVTVSS
# VL: NFMLTQPHSVSESPGKTVTIPCTGSRGSIANNYVQWYRQRPGRAPTTVIFEDNQRPSGVPDRFSGSIDRSSNSASLTISGLETEDEADYYCQSYDGSNVIFGGGTKLTVL
# notes: as for B1
# B20: STE73-6C8 IgG (antibody, V domains shown)
# VH: QVQLQQSGAEVKKPGSSVKVSCKASGGTFSSYAISWVRQAPGQGLEWMGRIIPILGIANYAQKFQGRVTITADKSTSTAYMELSSLRSEDTAVYYCARSIAALNWFDPWGQGTLVTVSS
# VL: NFMLTQPHSVSESPGKTVTIPCTGSRGSIANNYVQWYRQRPGRAPTTVIFEDNQRPSGVPDRFSGSIDRSSNSASLTISGLETEDEADYYCQSYDGSNVIFGGGTKLTVL
# notes: as for B7
# B21: STE73-2B2 scFv-Fc (scFv, V domains shown)
# VH: QVQLVQSGAEVKKPGASVKVSCKASGYTFTGYYMHWVRQAPGQGLEWMGWINPNSGGTNYAQKFQGRVTITRDTSASTAYMELSSLRSEDTAVYYCARVSGWYFGAFDIWGQGTMVTVSS
# VL: LPVLTQPHSLSESPGKTVNISCTGSSGSIASNYVQWYQQRPGSAPTTVIYEDSHRPSGVPDRFSGSIDSSSNSASLSISGLKTEDEADYYCQSYDSSNNQWVFGGGTKLTVL
# notes: as for B1
# What was measured:
# [1] = molecular target: T1, SARS-CoV-2 RBD-SD1 with murine IgG2a Fc part, produced in High Five cells (SARS-CoV-2, UniProt P0DTC2); assay: ELISA; settings: both partners purified
# T1 construct: source: High Five insect cells, transient transfection, purified (Protein A)
# [2] = molecular target: T1, SARS-CoV-2 RBD-SD1 with murine IgG2a Fc …; assay: flow cytometry on cells; settings: both partners purified
Binder,EC50 [1],IC50 [2]
B1,0.4 nM,5.6 nM
B2,2.8 nM,–
B3,0.5 nM,3.5 nM
B4,–,3.4 nM
B5,0.6 nM,4.1 nM
B6,0.4 nM,3.4 nM
B7,14.1 nM,–
B8,0.4 nM,–
B9,0.5 nM,4.8 nM
B10,1.1 nM,–
B11,3.1 nM,3 nM
B12,0.3 nM,3.2 nM
B13,0.3 nM,–
B14,1.5 nM,3 nM
B15,1.6 nM,–
B16,0.2 nM,2.8 nM
B17,0.8 nM,–
B18,0.2 nM,3.7 nM
B19,1.1 nM,5.4 nM
B20,2.9 nM,–
B21,0.2 nM,1.7 nM
